The test system of assay [1] is SHIV-SF162P3. The assay can be described thus: Antibody infusion in rhesus monkeys chronically infected with SHIV-SF162P3: plasma viral RNA. It counts as in vivo, rhesus monkeys (Macaca mulatta). The text has this: (§1) Groups were balanced for susceptible and resistant TRIM5α alleles (Lim et al., PLoS Pathog. 6: e1000738, 2010; Letvin et al., Sci Transl Med. 3: 81 ra36, 2011). Animals infected by the intrarectal route with our rhesus-derived SHIV-SF162P3 challenge stock for 9 months prior to antibody administration were utilized for the studies. […] 3BNC117 was manufactured by Celldex Therapeutics in CHO cells and purified by chromatography and sterile filtration. All the antibody preparations were endotoxin free. Cocktails of antibodies or single antibodies were administered to monkeys once or twice by the intravenous route at a dose of 10 mg/kg for each antibody. Monkeys were bled up to three times per week for viral loads. All animal studies were approved by the appropriate Institutional Animal Care and Use Committee (IACUC).
To evaluate the therapeutic potential of broad and potent HIV-1-specific antibodies in nonhuman primates, we infused cocktails of antibodies, as well as single antibodies, in chronically SHIV-infected rhesus monkeys.
We next investigated the therapeutic efficacy of a single infusion of the cocktail of three antibodies as well as a combination of only two antibodies. […] Viral rebound occurred in the majority of animals between day 28 and day 84 (FIGS. 2A and 2B) and was associated with declines of serum antibody titers to undetectable levels (FIGS. 2E and 2F).
It is generally believed that a combination of antibodies directed against multiple epitopes will be required for virologic control (Klein et al., Nature. 492: 118-122, 2012; Poignard et al., Immunity. 10: 431-438, 1999; Trkola et al., Nat Med. 11: 615-622, 2005; Diskin et al., J Exp Med. 210:1235-1249, 2013). However, the current extraordinarily potent and broad antibodies have not previously been evaluated in nonhuman primates with intact immune systems.

Assay [2] concerns SHIV-SF162P3 proviral DNA. The assay can be described thus: Proviral DNA assay (PBMC, lymph node, gastrointestinal mucosa) after antibody infusion. It counts as in vivo, rhesus monkeys (Macaca mulatta). Conditions: day 14 after single infusion 10 mg/kg.
From the text: as §1
Lymph node and gastrointestinal mucosal biopsies were processed as single cell suspensions essentially as previously described (Li et al., J Virol 85: 11007-11015, 2011). Tissue-specific proviral DNA was quantitated as previously reported (Whitney et al., J Virol. 83: 10840-10843, 2009). Total cellular DNA was isolated from 5×10^6 cells using a QIAamp DNA Blood Mini kit (Qiagen). The absolute quantification of viral DNA in each sample was determined by qPCR using primers specific to a conserved region SIVmac239. All samples were directly compared to a linear virus standard and the simultaneous amplification of a fragment of human GAPDH gene. The sensitivity of linear standards was compared against the 3D8 cell line as a reference standard as described (Whitney et al., J Virol. 83: 10840-10843, 2009). All PCR assays were performed with 100 and 200 ng of sample DNA.

For assay [3], the system named is clade C viruses. Conditions: cited from earlier work.
Assay [4] has as its system SHIV-SF162P3. The assay can be described thus: Sensitivity of SHIV-SF162P3 to 3BNC117. The format is cell-based.

We go through two molecules from US11202830B2, “Human immunodeficiency virus therapies utilizing N332-glycan-dependent antibodies in subjects with low viral loads” (priority 2013, dated 2021).

B1: PGT121: N332 glycan-dependent antibody; CDRs SEQ ID NO: 1-6, VH SEQ ID NO: 7, VL SEQ ID NO: 8 (antibody, V domains shown)
VH: QMQLQESGPGLVKPSETLSLTCSVSGASISDSYWSWIRRSPGKGLEWIGYVHKSGDTNYSPSLKSRVNLSLDTSKNQVSLSLVAATAADSGKYYCARTLHGRRIYGIVAFNEWFTYFYMDVWGNGTQVTVSS
VL: SDISVAPGETARISCGEKSLGSRAVQWYQHRAGQAPSLIIYNNQDRPSGIPERFSGSPDSPFGTTATLTITSVEAGDEADYYCHIWDSRVPTKWVFGGGTTLTVL
Consider B1, for which the “no evidence of viral rebound for” value in assay [1] (baseline <3.5 log RNA copies/ml, monkeys 4905 and DN1G) was “over 100 days”. In assay [1] (one infusion on day 0, n=3), the “time virtually undetectable viral RNA was maintained after treatment” value was “at least 15 days”; the “viral RNA after treatment” value was “virtually undetectable levels of viral RNA within days of treatment”; the “virologic suppression compared to 10-1074, 3BNC117, or VRC07-523” value is recorded as “extremely potent virologic suppression”. For the same molecule, the “animals with rapid virologic control to undetectable levels by day 7” value in assay [1] (single i.v. infusion day 0, 10 mg/kg of each antibody) is reported as 4 of 4. The “outcome in one animal (monkey DN1G)” value in assay [1] (single infusion 10 mg/kg) is reported as “long-term virologic control”. Besides, in assay [2] (P=0.05), the “reduction of proviral DNA in lymph nodes vs DEN3 control” value is reported as 4 fold and the “reduction of proviral DNA in peripheral blood vs DEN3 control” value is reported as 6 fold. The “reduction of proviral DNA in gastrointestinal mucosa vs DEN3 control” value in assay [2] (P=0.1) is listed as 4 fold. In assay [3], the “clade C viruses covered” value is reported as “approximately 70%”.

B2: 3BNC117: CD4bs-specific antibody; light chain SEQ ID NO: 257, heavy chain SEQ ID NO: 258 (antibody, listed as Homo sapiens)
heavy: QVQLLQSGAAVTKPGASVRVSCEASGYNIRDYFIHWWRQAPGQGLQWVGWINPKTGQPNNPRQFQGRVSLTRHASWDFDTFSFYMDLKALRSDDTAVYFCARQRSDYWDFDVWGSGTQVTVSS
light: DIQMTQSPSSLSASVGDTVTITCQANGYLNWYQQRRGKAPKLLIYDGSKLERGVPSRFSGRRWGQEYNLTINNLQPEDIATYFCQVYEFVVPGTRLDLKRTVA
In the case of B2, the “transient reduction of plasma viral loads” value in assay [1] (single infusion 10 mg/kg) is on record as 0.2-1.1 log. The “sensitivity of the SHIV-SF162P3 challenge stock” value in assay [4] (applicant's rhesus-derived challenge stock) is given as “largely resistant”. Also, the “sensitivity of the cloned SHIV-SF162P3 pseudovirus” value in assay [4] (cloned pseudovirus) is “highly sensitive”.
